Reference: patent publication US10712339B2, “Engineering of a novel breast tumor microenvironment on a microfluidic chip” (Arizona Board of Regents on behalf of Arizona State …, priority 2014, dated 2020)

Test system: SUM-159 breast cancer cells
Assay: Chemoinvasion of breast cancer cells in the microfluidic platform
Type: cell-based
Protocol: We encapsulated highly invasive SUM-159 breast cancer cells within our platform. Cells were encapsulated in a mixture of Collagen:Matrigel at a ratio of 1:1 (final collagen density is 1 mg/mL) and the solution was injected into the tumor region while cell-free collagen type I (2 mg/mL) was injected into the stromal region. In one platform, 50 ng/mL of epidermal growth factor (EGF) was injected to the side channels to stimulate chemoinvasion, while in a control platform, no EGF was injected. We observed the migration of the cells throughout the stromal region over the course of four days in both conditions.
There was noticeable collagen deformation showing that the cells are actively sensing their biophysical environment and reacting to it. […] Cells without EGF stimulation did invade as well but not by the same distance.

[1] = 50 ng/mL EGF vs -EGF control, day 4

B1: EGF: epidermal growth factor injected to the side channels to stimulate chemoinvasion (protein, UniProt P01133 23-1207, looked up)
Pro-epidermal growth factor: PQHWSCPEGTLAGNGNSTCVGPAPFLIFSHGNSIFRIDTEGTNYEQLVVDAGVSVIMDFHYNEKRIYWVDLERQLLQRVFLNGSRQERVCNIEKNVSGMAINWINEEVIWSNQQEGIITVTDMKGNNSHILLSALKYPANVAVDPVERFIFWSSEVAGSLYRADLDGVGVKALLETSEKITAVSLDVLDKRLFWIQYNREGSNSLICSCDYDGGSVHISKHPTQHNLFAMSLFGDRIFYSTWKMKTIWIANKHTGKDMVRINLHSSFVPLGELKVVHPLAQPKAEDDTWEPEQKLCKLRKGNCSSTVCGQDLQSHLCMCAEGYALSRDRKYCEDVNECAFWNHGCTLGCKNTPGSYYCTCPVGFVLLPDGKRCHQLVSCPRNVSECSHDCVLTSEGPLCFCPEGSVLERDGKTCSGCSSPDNGGCSQLCVPLSPVSWECDCFPGYDLQLDEKSCAASGPQPFLLFANSQDIRHMHFDGTDYGTLLSQQMGMVYALDHDPVENKIYFAHTALKWIERANMDGSQRERLIEEGVDVPEGLAVDWIGRRFYWTDRGKSLIGRSDLNGKRSKIITKENISQPRGIAVHPMAKRLFWTDTGINPRIESSSLQGLGRLVIASSDLIWPSGITIDFLTDKLYWCDAKQSVIEMANLDGSKRRRLTQNDVGHPFAVAVFEDYVWFSDWAMPSVMRVNKRTGKDRVRLQGSMLKPSSLVVVHPLAKPGADPCLYQNGGCEHICKKRLGTAWCSCREGFMKASDGKTCLALDGHQLLAGGEVDLKNQVTPLDILSKTRVSEDNITESQHMLVAEIMVSDQDDCAPVGCSMYARCISEGEDATCQCLKGFAGDGKLCSDIDECEMGVPVCPPASSKCINTEGGYVCRCSEGYQGDGIHCLDIDECQLGEHSCGENASCTNTEGGYTCMCAGRLSEPGLICPDSTPPPHLREDDHHYSVRNSDSECPLSHDGYCLHDGVCMYIEALDKYACNCVVGYIGERCQYRDLKWWELRHAGHGQQQKVIVVAVCVVVLVMLLLLSLWGAHYYRTQKLLSKNPKNPYEESSRDVRSRRPADTEDGMSSCPQPWFVVIKEHQDLKNGGQPVAGEDGQAADGSMQPTSWRQEPQLCGMGTEQGCWIPVSSDKGSCPQVMERSFHMPSYGTQTLEGGVEKPHSLLSANPLWQQRALDPPHQMELTQ
modifications: Pro-epidermal growth factor
notes: epidermal growth factor injected to the side channels to stimulate chemoinvasion
50 ng/mL EGF in side channels vs -EGF control, by day 3
  invasion distance into the stromal region: invaded further
[1]
  cell count as a function of migration distance: more cells had migrated a greater distance
  number of cells in the media channels: a higher number of cells were seen in the channels
